Measurements published in patent publication US20240361328A1.

What was measured:
[1] = molecular target: anti-CD19 CAR (clone FMC63), second-generation, C-terminal meGFP (human) (UniProt P01732); assay: flow cytometry spike-in assay, 'Mid Clone' at 10%
[2] = molecular target: anti-CD19 CAR (clone FMC63), second-generation, C-terminal meGFP (human) (UniProt P01732); assay: cell-based or functional assay
[3] = molecular target: anti-CD19 CAR (clone FMC63), second-generation, C-terminal meGFP (human) (UniProt P01732); assay: flow cytometry staining titration, dose-response fit
[4] = molecular target: anti-CD19 CAR (clone FMC63), second-generation, C-terminal meGFP (human) (UniProt P01732); assay: flow cytometry specificity staining, matched CAR cells
[5] = molecular target: anti-CD19 CAR (clone FMC63), second-generation, C-terminal meGFP (human) (UniProt P01732); assay: flow cytometry staining titration, CAR-transduced Jurkat cells
[6] = molecular target: anti-CD19 CAR (clone FMC63), second-generation, C-terminal meGFP (human) (UniProt P01732); assay: flow cytometry staining titration, αCD19-CAR-transduced Jurkat cells
[7] = molecular target: anti-CD19 CAR (clone FMC63), second-generation, C-terminal meGFP (human) (UniProt P01732); assay: flow cytometry staining titration, anti-CD19 CAR-transduced Jurkat cells
[8] = molecular target: anti-CD19 CAR (clone FMC63), second-generation, C-terminal meGFP (human) (UniProt P01732); assay: magnetic selection with APC-labeled multimer and anti-APC magnetic particles, 'Low Clone'
[9] = molecular target: anti-CD19 CAR (clone FMC63), second-generation, C-terminal meGFP (human) (UniProt P01732); assay: magnetic selection with APC-labeled multimer and anti-APC magnetic particles, 'Mid Clone'
[10] = molecular target: anti-CD19 CAR (clone FMC63), second-generation, C-terminal meGFP (human) (UniProt P01732); assay: flow cytometry spike-in assay, 'Low Clone' and 'Mid Clone' anti-CD19 CAR-meGFP cells among mCherry non-CAR cells

| Substance | percent of cells detected [1] | CAR-T cells as percent of total cell population (49% without multimer) [2] | CD69+CD25+ cells in CD4+ CAR-T cell sub-population (17% without multimer) [2] | CD69+CD25+ cells in CD8+ CAR-T cell sub-population (5% without multimer) [2] | PD-1+ CAR-T cells in CD4+ CAR-T cell sub-population (25% without multimer) [2] | PD-1+ CAR-T cells in CD8+ CAR-T cell sub-population (2% without multimer) [2] | fold staining efficiency (1/EC50) against anti FMC63 antibody [3] | percent of CAR-expressing cells detected [4] | percent of target cells detected at the maximum concentration [5] | percent of CD19 CAR-expressing cells detected at saturated concentrations [6] | efficiency of detection against antigen-monomer [7] | percent of CAR+ cells retained in the column [8] | percent of CAR+ cells retained in the column [9] | sensitivity [10] |
| --- | --- | --- | --- | --- | --- | --- | --- | --- | --- | --- | --- | --- | --- | --- |
| Protein L (Thermo Fisher Scientific, 29997) | 90% |  |  |  |  |  |  |  |  |  |  |  |  |  |
| CD19 antigen-dodecamer (from UniProt P22629 37-163) |  | 70% | 28% | 38% | 25% | 6% | 40 fold | > 90% | > 92% | 90% | 25 % higher | 35% | 55% | > 90% |
| CD19 antigen-streptavidin tetramer (from UniProt P22629 37-163) |  | 61% | 26% | 28% | 26% | 6% | 8 fold | > 90% | > 92% | 93% | 25 % higher | 35% | 55% | > 90% |
